Test results from patent publication US11312781B2, “Antigen binding molecules that bind LIGHT” (Capella Bioscience Ltd., priority 2018, dated 2022).
Where a chain is given by its changes, count along the chain named.

B1: 3B04: parental mouse anti-membrane LIGHT antibody, VL SEQ ID NO 1, VH SEQ ID NO 5; tested as chimeric human IgG4 mAb (antibody, listed as Homo sapiens, V domains shown)
VH: QVQLQQPGAELVRPGASVTLSCKASGYTFTDYEMHWVKQTPVHGLEWIGEIDPETGDTAYSQKFKGKATLTADKSSSTAYMEFRSLTSEDSAVYYCSRETDYFFDYWGQGTTLTVSS
VL: DIQMTQTPASLSASVGETVTITCGASENIYGALNWYQRKQGKSPQLLIYGATNLADGMSSRFSGSGSGRQYSLKISSLHPDDFATYYCQNVLTTPWTFGGGTKLEIKR
B2: 3D12: parental mouse anti-membrane LIGHT antibody, VL SEQ ID NO 41, VH SEQ ID NO 45; tested as chimeric human IgG4 mAb (antibody, listed as Homo sapiens, V domains shown)
VH: B1 VH with G26D, Y32S, M34I, D57G, S61N, F83L
VL: B1 VL with T7S, F83V, T93S

Key:
[1] = biological target: T1, membrane LIGHT stably expressed on EL4 cells (Homo sapiens, UniProt O43557); experiment: Binding ratio of mAbs bound to membrane LIGHT by flow cytometry (EL4 cells); conditions: FIG. 7
T1 construct: expressed in transfected cells; host or cells: EL4 mouse lymphoma cells, stably transduced (Cheung et al. J. Immunol. 2009)
T1 sequence (O43557 whole entry): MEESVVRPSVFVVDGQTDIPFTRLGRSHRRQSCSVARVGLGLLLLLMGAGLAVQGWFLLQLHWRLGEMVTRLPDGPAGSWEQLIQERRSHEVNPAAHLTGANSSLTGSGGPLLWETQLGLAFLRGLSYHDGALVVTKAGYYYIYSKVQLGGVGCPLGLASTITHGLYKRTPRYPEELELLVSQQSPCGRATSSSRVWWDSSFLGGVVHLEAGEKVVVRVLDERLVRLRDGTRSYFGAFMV
Procedure: Stably transduced LIGHT expressing EL4 cells (mouse lymphoma cell line; EL4-LIGHT; Cheung et al. J. Immunol. 2009; 183:7286-7296) were used for the flow cytometry-based binding analysis. EL4-LIGHT cells (0.25×10^6 per well) that had been washed in were incubated with anti-LIGHT IgG4 clones (0.002-100 nM) for 30 min at 4° C. The cells were washed and anti-human IgG-APC conjugate (diluted 1:500, Biolegend cat. No. 409306) was used for detecting anti-LIGHT IgG bound on EL4-LIGHT cells.
FIG. 7 depicts the flow cytometry analysis of the anti-membrane LIGHT mAbs (3B04 and 3D12) binding to LIGHT stably expressed on EL4 cells. The maximum signal of the IgG4 mAbs 3B04 and 3D12 binding to membrane LIGHT is approximately 40000 MFI. In contrast anti-LIGHT mAbs F19 and F23 (IgG4 mAbs from EP2292663) gave a maximal signal of approximately 120000 MFI. The ratio of binding of mAb F19 and mAb F23 is approximately 3 times that of the anti-membrane LIGHT mAbs 3B04 and 3D12. […] Other mAbs of this invention; 2E08, 3A07, 3C10, 3E09 and 2B11 also bind LIGHT in a 1:1 ratio when compared to mAbs F19 and F23 by flow cytometry.

[2] = biological target: T2, DcR3 binding to membrane LIGHT (EL4-LIGHT cells) (Homo sapiens, UniProt O43557); experiment: Competition binding of anti-membrane LIGHT antibodies with DcR3-His on EL4-LIGHT cells; conditions: mAb at up to 100 nM
T2 construct: expressed in transfected cells; host or cells: EL4 mouse lymphoma cells, stably transduced
T2 sequence (O43557 whole entry): as above
Procedure: DcR3 (TNFRSF6B) is a decoy receptor that competes with receptors for ligand binding. DcR3 can bind and neutralise LIGHT with high affinity and TL1A and FasL with lower affinity (Zhan C et al. Structure. 2011, 19:162-71 “Decoy strategies: the structure of TL1A:DcR3 complex”). Stably transduced LIGHT-expressing EL4 cells (mouse lymphoma cell line; EL4-LIGHT) were used for the flow cytometry-based competition-binding analysis.
EL4-LIGHT cells (0.25×10^6) were preincubated with anti-membrane LIGHT mAbs (0-300 nM) for 15 min at 4° C. followed by incubation with DcR3-His tagged (1 nM, Creative BioMart; ref:TNFRSF6B-552H, lot:962512) for 30 min at 4° C. The samples were then incubated with mouse anti-histag antibody (diluted 1:500, Biolegend, cat. no. 652502) for 30 minutes at 4° C., followed by incubation with anti-mouse APC (dil 1:500, BDBiosciences, cat. no. 550826) for 30 minutes at 4° C. The tubes were washed three times after each of the detection antibody stages and flow cytometry analysis was performed. Specific mean fluorescence intensity (MFI) obtained from the binding of DcR3-His to LIGHT on EL4 cells were used to determine the levels of competition binding.

Row | Molecule | Maximum signal of binding to membrane LIGHT [1] | Inhibition of DcR3 binding to membrane LIGHT [2]
1 | B1 | approximately 40000 MFI | only partially inhibit
2 | B2 | approximately 40000 MFI | only partially inhibit
